Laboratory results as given in doi:10.64898/2025.12.17.695035.

Biological target: E. coli RNAP as used in the ITC experiments (E. coli) (UniProt P0A7Z4)
Test: ITC

## Escherichia phage protein EP1 (from UniProt A0A0N9RSC1 1-107) (natural protein)
  Kd: 0.034 µM
